Assay [1] concerns the target SARS-CoV-2 Gamma突变株S蛋白 (假病毒, Genebank:MZ427312.1) (SARS-CoV-2 Gamma突变株). The assay is described as follows: cell-based or functional assay.
In the assay “SARS-CoV-2 S1蛋白(Sino …)” the target is T1, SARS-CoV-2 S1蛋白(Sino Biological，货号:40591-V08H) (SARS-CoV-2, UniProt P0DTC2 16-685).
T1 construct: domain: S1
The assay is described as follows: ELISA, S1 protein coated at 2 μg/mL, antibody at 1 μg/mL. Background: In an ELISA, binding on a coated surface is turned into a signal by an enzyme label.

Assay [2] has as its target T2, SARS-CoV-2 Wuhan-Hu-1 S蛋白(Sino Biological，货号:40589-V08B1) (SARS-CoV-2 Wuhan-Hu-1, UniProt P0DTC2 14-1213).
T2 construct: extracellular domain
The assay can be described thus: ELISA screen, S protein coated at 2 μg/mL, antibody at 1 μg/mL.

For the assay “SARS-CoV S1蛋白(Sino …)”, the target named is SARS-CoV S1蛋白(Sino Biological，货号:40150-V08B1) (SARS-CoV, UniProt P59594 14-667). The assay is described as follows: ELISA, S1 protein coated at 2 μg/mL, antibody titrated from 10 μg/mL.
The assay “SARS-CoV-2 S2蛋白(Sino …)” concerns the target T3, SARS-CoV-2 S2蛋白(Sino Biological，货号:40590-V08B) (SARS-CoV-2, UniProt P0DTC2 686-1213).
T3 construct: domain: S2
The assay is described as follows: ELISA, S2 protein coated at 2 μg/mL, antibody at 1 μg/mL, anti-human IgG-HRP.

B1: 全人源广谱抗sarbecovirus和/或新冠突变株的抗体(VSCM8-83) (antibody, V domains shown)
VH: EVQLVEFGGGLVQPGGSLRLSCAASGFAVSSNYMSWVRQAPGKGLEWVSVIYGDGTTYYGDSVKGRFTISRHNSKNTLYLQMNSLRTEDTAVYYCARIVSEAFDLWGQGTMVTVSS
VL: DIQMTQSPSTLSASVGDRVTITCRASQSIGRWLAWYQQKPGKAPKLLIYMASILESGVPSRFSGSGSATEFTLTISSLQPDDFATYYCQQYNGYSQYTFGQGTKLEIKR
Consider B1, for which the “假病毒中和 IC50” value in assay [1] was determined as 0.0207 µg/mL. In addition, the binding result is listed as “binds” with SARS-CoV-2 S1蛋白(Sino …), “binds” in assay [2], “binds” with SARS-CoV S1蛋白(Sino …) and “no binding (tested: 1μg/mL)” with SARS-CoV-2 S2蛋白(Sino …).

The values are drawn from patent CN118638216A (CHENZHOU NO 1 PEOPLES HOSPITAL, dated 2024).
